Paper doi:10.1101/2025.03.21.644603, “Oligomerization enables the selective targeting of intrinsically disordered regions by small molecules” (bioRxiv, 2025)

B1: activation domain of the glucocorticoid receptor (GR) (domain or fragment, UniProt P04150 1-420, looked up)
chain: MDSKESLTPGREENPSSVLAQERGDVMDFYKTLRGGATVKVSASSPSLAVASQSDSKQRRLLVDFPKGSVSNAQQPDLSKAVSLSMGLYMGETETKVMGNDLGFPQQGQISLSSGETDLKLLEESIANLNRSTSVPENPKSSASTAVSAAPTEKEFPKTHSDVSSEQQHLKGQTGTNGGNVKLYTTDQSTFDILQDLEFSSGSPGKETNESPWRSDLLIDENCLLSPLAGEDDSFLLEGNSNEDCKPLILPDTKPKIKDNGDLVLSSPSNVTLPQVKTEKEDFIELCTPGVIKQEKLGTVYCQASFPGANIIGNKMSAISVHGVSTSGGQMYHYDMNTASLSQQQDQKPIFNVIPPIPVGSENWNRCQGSGDDNLTSLGTLNFPGRTVFSNGYSSPSMRPDVSSPPSSSSTATTGPPPKL
notes: also called GR AD; GR (1-420 aa); source: E. coli Rosetta (DE3), pDEST17, purified (inclusion bodies in urea, HisTrap, tag cleavage, SEC); not shown: His-tag, N-terminal, cleaved
B2: activation domain of the estrogen receptor alpha (ERɑ) (domain or fragment, UniProt P03372 1-184, looked up)
chain: MTMTLHTKASGMALLHQIQGNELEPLNRPQLKIPLERPLGEVYLDSSKPAVYNYPEGAAYEFNAAAAANAQVYGQTGLPYGPGSEAAAFGSNGLGGFPPLNSVSPSPLMLLHPPPQLSPFLQPHGQQVPYYLENEPSGYTVREAGPPAFYRPNSDNRRQGGRERLASTNDKGSMAMESAKETRY
notes: also called ERɑ AD; ERɑ (1-184 aa); source: E. coli Rosetta (DE3), pDEST17, purified (inclusion bodies in urea, HisTrap, tag cleavage, SEC); not shown: His-tag, N-terminal, cleaved
B3: activation domain of the mineralocorticoid receptor (MR) (domain or fragment, UniProt P08235 1-602, looked up)
chain: METKGYHSLPEGLDMERRWGQVSQAVERSSLGPTERTDENNYMEIVNVSCVSGAIPNNSTQGSSKEKQELLPCLQQDNNRPGILTSDIKTELESKELSATVAESMGLYMDSVRDADYSYEQQNQQGSMSPAKIYQNVEQLVKFYKGNGHRPSTLSCVNTPLRSFMSDSGSSVNGGVMRAVVKSPIMCHEKSPSVCSPLNMTSSVCSPAGINSVSSTTASFGSFPVHSPITQGTPLTCSPNVENRGSRSHSPAHASNVGSPLSSPLSSMKSSISSPPSHCSVKSPVSSPNNVTLRSSVSSPANINNSRCSVSSPSNTNNRSTLSSPAASTVGSICSPVNNAFSYTASGTSAGSSTLRDVVPSPDTQEKGAQEVPFPKTEEVESAISNGVTGQLNIVQYIKPEPDGAFSSSCLGGNSKINSDSSFSVPIKQESTKHSCSGTSFKGNPTVNPFPFMDGSYFSFMDDKDYYSLSGILGPPVPGFDGNCEGSGFPVGIKQEPDDGSYYPEASIPSSAIVGVNSGGQSFHYRIGAQGTISLSRSARDQSFQHLSSFPPVNTLVESWKSHGDLSSRRSDGYPVLEYIPENVSSSTLRSVSTGSSRPSKI
notes: also called MR AD; MR (1-602 aa); source: E. coli Rosetta (DE3), pDEST17, purified (inclusion bodies in urea, HisTrap, tag cleavage, SEC); not shown: His-tag, N-terminal, cleaved
B4: activation domain of the progesterone receptor (PR) (domain or fragment, UniProt P06401 1-566, looked up)
chain: MTELKAKGPRAPHVAGGPPSPEVGSPLLCRPAAGPFPGSQTSDTLPEVSAIPISLDGLLFPRPCQGQDPSDEKTQDQQSLSDVEGAYSRAEATRGAGGSSSSPPEKDSGLLDSVLDTLLAPSGPGQSQPSPPACEVTSSWCLFGPELPEDPPAAPATQRVLSPLMSRSGCKVGDSSGTAAAHKVLPRGLSPARQLLLPASESPHWSGAPVKPSPQAAAVEVEEEDGSESEESAGPLLKGKPRALGGAAAGGGAAAVPPGAAAGGVALVPKEDSRFSAPRVALVEQDAPMAPGRSPLATTVMDFIHVPILPLNHALLAARTRQLLEDESYDGGAGAASAFAPPRSSPCASSTPVAVGDFPDCAYPPDAEPKDDAYPLYSDFQPPALKIKEEEEGAEASARSPRSYLVAGANPAAFPDFPLGPPPPLPPRATPSRPGEAAVTAAPASASVSSASSSGSTLECILYKAEGAPPQQGPFAPPPCKAPGASGCLLPRDGLPSTSASAAAAGAAPALYPALGLNGLPQLGYQAAVLKEGLPQVYPPYLNYLRPDSEASQSPQYSFESLPQKI
notes: also called PR AD; PR (1-566 aa); source: E. coli Rosetta (DE3), pDEST17, purified (inclusion bodies in urea, HisTrap, tag cleavage, SEC); not shown: His-tag, N-terminal, cleaved

Molecular target: the molecule itself
Assay: dynamic light scattering; one purified protein in solution; NR ADs at 2 mg/mL (AR AD also 35 µM), Tau-5* at 200 to 500 µM; 5 °C; 20 mM sodium phosphate pH 7.4, 1 mM TCEP, 0.5% DMSO-d6; percent of monomer against higher-order species; also with increasing EPI-001

Binding result, binds:
B1
B2
B3
B4
